We go through 14 molecules from patent US12139520B2 (priority 2020, dated 2024).

Bridge positions count the residues as written; N and C are the ends. Square brackets hold non-standard residues; d marks the D form. Ends that are not written are not given here. Hyp = O=C(O)[C@@H]1C[C@@H](O)CN1; Cit = NC(=O)NCCC[C@H](N)C(=O)O A value given as a limit tells only on which side of the number the result lay.

To fix the notation:
T1: hAMY3R (human, UniProt P30988)
T1 sequence 1: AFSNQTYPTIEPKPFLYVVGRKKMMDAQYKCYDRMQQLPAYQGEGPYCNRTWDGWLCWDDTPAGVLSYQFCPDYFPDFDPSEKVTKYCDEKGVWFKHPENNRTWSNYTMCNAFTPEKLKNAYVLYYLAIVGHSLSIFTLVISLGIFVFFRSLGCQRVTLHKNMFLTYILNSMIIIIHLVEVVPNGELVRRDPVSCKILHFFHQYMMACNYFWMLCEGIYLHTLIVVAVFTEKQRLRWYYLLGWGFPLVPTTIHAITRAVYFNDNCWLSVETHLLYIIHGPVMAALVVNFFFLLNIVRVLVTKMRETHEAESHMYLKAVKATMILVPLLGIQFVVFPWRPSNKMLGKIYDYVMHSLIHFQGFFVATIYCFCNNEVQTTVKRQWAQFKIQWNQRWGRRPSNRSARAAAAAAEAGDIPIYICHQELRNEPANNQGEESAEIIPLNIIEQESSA
T1 sequence 2: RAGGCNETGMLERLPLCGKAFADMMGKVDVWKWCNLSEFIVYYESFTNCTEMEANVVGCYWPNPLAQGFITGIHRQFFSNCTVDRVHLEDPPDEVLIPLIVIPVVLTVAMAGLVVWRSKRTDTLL

In one assay the target is T1, hAMY3R. As to the kind of experiment: cell-based or functional assay.
With GCRFGTCTVQWLAHQIYQFTDKDKDNVAPRTNIGPNG[Hyp]-NH2 (disulfide 2-7 (inferred); ends not checked) [SEQ ID NO: 331], the “hAMY3R EC50 (cAMP)” value was 0.006 nM.
Same read-out and setting: the same measure for GCRFGTCTVQWLAHQIYQFTDKDKDNVAPRTKVGPQG[Hyp]-NH2 (disulfide 2-7 (inferred); ends not checked) [SEQ ID NO: 322]: 0.014 nM; for KCNTATCTVQWLAHQIYQFTDADKDNVAPPTNVGSNG[Hyp]-NH2 (disulfide 2-7 (inferred); ends not checked) [SEQ ID NO: 328]: 0.01 nM.
The same measure, in the same setting: the same measure for KCNTATCTVQWLAHQIYQFTDKDKDNVAPRTEVGSNGY [SEQ ID NO: 334]: 0.013 nM; for RCQASTCTVA[Cit]LAEQIAQYTDKDKDQVAPPTEVGPNS[Hyp]-NH2 (disulfide 2-7 (inferred); ends not checked) [SEQ ID NO: 33]: 0.008 nM.
The same measure, in the same setting: the same measure for KCNAATCTVQWLAEQIYQFTDKDKDNVAPPTNVGSNG[Hyp]-NH2 (disulfide 2-7 (inferred); ends not checked) [SEQ ID NO: 333]: 0.236 nM; for KCNTATCTVQWLAHQIYQFTDKDKDAVAPPTNVGSNG[Hyp]-NH2 (disulfide 2-7 (inferred); ends not checked) [SEQ ID NO: 324]: 0.028 nM.
Consider GCRFGTCTVQWLAHFLYQFTDKDKDNVAPRTNVGPQGY [SEQ ID NO: 326], for which the “hAMY3R EC50 (cAMP)” value is 0.053 nM.
GCRTGTCTVQWLAHQIYQFTDKDKDNVAPRTNVGPNGY [SEQ ID NO: 332]: the “hAMY3R EC50 (cAMP)” value turned out to be 0.007 nM.
For the molecule GCRFGTCTVQWLAHFLYQFTDKDKDNVAPRTNVGSNTY [SEQ ID NO: 327], the “hAMY3R EC50 (cAMP)” value amounted to 0.09 nM.
Still for that read-out and setting: as for KCNTATCTVQWLAHQIYQFTDKDKDNVAPPTNVGSNG[Hyp]-NH2 (disulfide 2-7 (inferred); ends not checked) [SEQ ID NO: 330], the figure is 0.008 nM; as for GCRTGTCTVQWLAHQIYQFTDKDKDNVAPRTNVGPQG[Hyp]-NH2 (disulfide 2-7 (inferred); ends not checked) [SEQ ID NO: 323], 0.014 nM.
In the case of KCNTATCTVQWLAHQIYQFDKDKDNVAPPTNVGSNG[Hyp]-NH2 (disulfide 2-7 (inferred); ends not checked) [SEQ ID NO: 329], the “hAMY3R EC50 (cAMP)” value turned out to be 0.032 nM.
Regarding KCNTATCTVQWLAHQIYQFTDKDKDNVAAPTNVGSNG[Hyp]-NH2 (disulfide 2-7 (inferred); ends not checked) [SEQ ID NO: 325], the “hAMY3R EC50 (cAMP)” value worked out at 0.025 nM.

Another assay deals with hAM1R (human, UniProt Q16602). As to the kind of experiment: cell-based or functional assay.
On to GCRFGTCTVQWLAHQIYQFTDKDKDNVAPRTNIGPNG[Hyp]-NH2 (disulfide 2-7 (inferred); ends not checked) [SEQ ID NO: 331], for which the “hAM1R EC50 (cAMP)” value was 3570 nM.
For GCRFGTCTVQWLAHQIYQFTDKDKDNVAPRTKVGPQG[Hyp]-NH2 (disulfide 2-7 (inferred); ends not checked) [SEQ ID NO: 322], the “hAM1R EC50 (cAMP)” value was found to be 1390 nM.
Same read-out and setting: as for KCNTATCTVQWLAHQIYQFTDADKDNVAPPTNVGSNG[Hyp]-NH2 (disulfide 2-7 (inferred); ends not checked) [SEQ ID NO: 328], the figure is more than 5000 nM; as for KCNTATCTVQWLAHQIYQFTDKDKDNVAPRTEVGSNGY [SEQ ID NO: 334], more than 5000 nM.
Regarding RCQASTCTVA[Cit]LAEQIAQYTDKDKDQVAPPTEVGPNS[Hyp]-NH2 (disulfide 2-7 (inferred); ends not checked) [SEQ ID NO: 33], the “hAM1R EC50 (cAMP)” value is more than 5000 nM.
As to KCNAATCTVQWLAEQIYQFTDKDKDNVAPPTNVGSNG[Hyp]-NH2 (disulfide 2-7 (inferred); ends not checked) [SEQ ID NO: 333], the “hAM1R EC50 (cAMP)” value stood at 107 nM.
The same measure, in the same setting: the same measure for KCNTATCTVQWLAHQIYQFTDKDKDAVAPPTNVGSNG[Hyp]-NH2 (disulfide 2-7 (inferred); ends not checked) [SEQ ID NO: 324]: more than 5000 nM; for GCRFGTCTVQWLAHFLYQFTDKDKDNVAPRTNVGPQGY [SEQ ID NO: 326]: more than 5000 nM; for GCRTGTCTVQWLAHQIYQFTDKDKDNVAPRTNVGPNGY [SEQ ID NO: 332]: more than 5000 nM.
Still for that read-out and setting: the same measure for GCRFGTCTVQWLAHFLYQFTDKDKDNVAPRTNVGSNTY [SEQ ID NO: 327]: more than 5000 nM; for KCNTATCTVQWLAHQIYQFTDKDKDNVAPPTNVGSNG[Hyp]-NH2 (disulfide 2-7 (inferred); ends not checked) [SEQ ID NO: 330]: more than 5000 nM.
Take GCRTGTCTVQWLAHQIYQFTDKDKDNVAPRTNVGPQG[Hyp]-NH2 (disulfide 2-7 (inferred); ends not checked) [SEQ ID NO: 323]: the “hAM1R EC50 (cAMP)” value was more than 5000 nM.
The same measure, in the same setting: the same measure for KCNTATCTVQWLAHQIYQFDKDKDNVAPPTNVGSNG[Hyp]-NH2 (disulfide 2-7 (inferred); ends not checked) [SEQ ID NO: 329]: more than 5000 nM; for KCNTATCTVQWLAHQIYQFTDKDKDNVAAPTNVGSNG[Hyp]-NH2 (disulfide 2-7 (inferred); ends not checked) [SEQ ID NO: 325]: more than 5000 nM.
